According to paper PMC11487272:

Experiments:
[1] = target: cFLIP^tDED_H7G (cFLIP tandem DED, residues 1-181, H7G) (UniProt O15519); assay: crystal structure
[2] = target: wild-type cFLIP^tDED as used in the ternary co-purification (UniProt O15519); assay: cryo-EM structure

| stoichiometry N (molecules in the complex) [1] | stoichiometry N (molecules in the complex (Complex D)) [2] | stoichiometry N (molecules in the complex (Complex E)) [2] | stoichiometry N (molecules in the complex (Complex F)) [2] | stoichiometry N (molecules in the complex (Complex G)) [2] | Substance |
| --- | --- | --- | --- | --- | --- |
| 6 |  |  |  |  | cFLIP^tDED_H7G (cFLIP tandem DED, residues 1-181, H7G) (from UniProt O15519 1-181) (domain or fragment) |
|  | 5 | 6 | 8 | 4 | wild-type cFLIP^tDED as used in the ternary co-purification (from UniProt O15519 1-181) (domain or fragment) |
